Experimental data: patent publication US20120065123A1, “Synthetic Antibodies” (priority 2009, published 2012)
Where no end group is shown, it is not given here.

B1: TRF26 H12F point-mutant (peptide)
peptide: AHKVVPQRQIRFAYNRYGSC
B2: TRF26 P6Y+H12F double mutant (peptide)
peptide: AHKVVYQRQIRFAYNRYGSC
B3: TRF26 P6Y point-mutant (peptide)
peptide: AHKVVYQRQIRHAYNRYGSC
B4: TRF26 (peptide)
peptide: AHKVVPQRQIRHAYNRYGSC
B5: TNF1-opt (D4S+P5Y+M7K+S11K quadruple mutant of TNF1) (peptide)
chain: FERSYLKMPWKFLQSRQGSC
modifications: not checked
B6: TBPM023 (peptide)
peptide: AHKVVPQRQMRHAYSRYGSC
B7: TRF27 (peptide)
peptide: LDPLFNTSIMVNWHRWMGSC
B8: TRF22 (peptide)
peptide: HAYKGPGDMRRFNHSGMGSC
B9: TRF25 (peptide)
peptide: APYAPQQIHYWSTLGFKGSC
B10: TRF19 (peptide)
peptide: KEDNPGYSSEQDYNKLDGSC
B11: TRF20 (peptide)
peptide: GQTQFAMHRFQQWYKIKGSC
B12: TRF23 (peptide)
peptide: FRGWAHIFFGPHVIYRGGSC
B13: TRF24 (peptide)
peptide: SVKPWRPLLTGNRWLNSGSC
B14: TRF21 (peptide)
peptide: QYHHFMNLKRQGRAQAYGSC
B15: TNF1 M7K point-mutant (peptide)
chain: FERDPLKMPWSFLQSRQGSC
modifications: not checked
B16: TNF1 P5Y+S11K double mutant (peptide)
chain: FERDYLMMPWKFLQSRQGSC
modifications: not checked
B17: TNF1 D4Y point-mutant (peptide)
chain: FERYPLMMPWSFLQSRQGSC
modifications: not checked
B18: TNF1 D4S+P5Y+M7K triple mutant (peptide)
chain: FERSYLKMPWSFLQSRQGSC
modifications: not checked
B19: TNF1 D4S+P5Y+S11K triple mutant (peptide)
chain: FERSYLMMPWKFLQSRQGSC
modifications: not checked
B20: TNF1 P5Y+M7K double mutant (peptide)
chain: FERDYLKMPWSFLQSRQGSC
modifications: not checked
B21: TNF1 D4Y+S11K double mutant (peptide)
chain: FERYPLMMPWKFLQSRQGSC
modifications: not checked
B22: TNF1 P5Y point-mutant (peptide)
chain: FERDYLMMPWSFLQSRQGSC
modifications: not checked
B23: TNF1 D4Y+M7K double mutant (peptide)
chain: FERYPLKMPWSFLQSRQGSC
modifications: not checked
B24: TNF1 S11K point-mutant (peptide)
chain: FERDPLMMPWKFLQSRQGSC
modifications: not checked
B25: TBPL025 (peptide)
peptide: GHKVVPQRQMRHAYNRNGSC
B26: TBPL005 (peptide)
peptide: GHKVVPQRQIRHAYNRYGSC
B27: synbody comprising TRF-26 and TRF-23 (Example 9) (designed binder)
peptide 1: AHKVVPQRQIRHAYNRYGSG
peptide 2: FRGWAHIFFGPHVIYRGGSG
modifications: not fully specified (bridges); also: both C-termini joined to the alpha and epsilon amines of a lysine linker

target: transferrin; assay: affinity characterization of the peptide; method not named

T100 sequence (P02787 20-698): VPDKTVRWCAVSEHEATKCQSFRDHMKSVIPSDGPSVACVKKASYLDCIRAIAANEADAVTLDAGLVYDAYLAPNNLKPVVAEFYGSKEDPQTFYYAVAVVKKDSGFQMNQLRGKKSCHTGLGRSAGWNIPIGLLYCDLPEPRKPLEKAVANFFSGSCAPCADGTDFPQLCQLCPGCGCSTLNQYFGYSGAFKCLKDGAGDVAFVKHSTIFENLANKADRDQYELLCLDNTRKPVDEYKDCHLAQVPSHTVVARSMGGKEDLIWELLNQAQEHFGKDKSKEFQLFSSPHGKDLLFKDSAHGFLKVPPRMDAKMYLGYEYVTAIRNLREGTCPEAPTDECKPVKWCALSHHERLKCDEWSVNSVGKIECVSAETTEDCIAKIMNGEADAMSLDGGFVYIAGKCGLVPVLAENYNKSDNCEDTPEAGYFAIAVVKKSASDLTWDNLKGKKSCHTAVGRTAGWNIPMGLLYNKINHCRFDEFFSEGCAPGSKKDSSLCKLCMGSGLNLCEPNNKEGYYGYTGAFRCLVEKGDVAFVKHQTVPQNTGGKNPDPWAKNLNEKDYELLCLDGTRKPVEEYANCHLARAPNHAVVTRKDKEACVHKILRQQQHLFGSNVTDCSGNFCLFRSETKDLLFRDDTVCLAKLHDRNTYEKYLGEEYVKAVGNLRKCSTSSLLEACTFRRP

Row | Binding ΔG | Kd | Binding ΔG (observed) | Binder
1 | -6.85 kcal/mol | 9.7 µM | – | B1
2 | – | 0.5 µM | -8.68 kcal/mol | B2
3 | -6.93 kcal/mol | 8.6 µM | – | B3
4 | -5.56 kcal/mol | 85 µM | – | B4

target: Tumor Necrosis Factor-alpha (TNF-α); assay: SPR kinetic fits of sensorgrams
Sequence (P01375 77-233): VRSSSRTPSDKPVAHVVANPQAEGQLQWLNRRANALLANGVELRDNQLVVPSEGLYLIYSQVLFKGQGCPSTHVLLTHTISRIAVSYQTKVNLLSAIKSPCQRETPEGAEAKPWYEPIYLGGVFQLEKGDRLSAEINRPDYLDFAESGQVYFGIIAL

Row | Binder | koff
5 | B5 | 0.2 s⁻¹

target: transferrin; assay: affinity characterization of the peptide; method not named; remark: another data set of the same source

Row | Kd | Binder
6 | 9.8 µM | B1

target: transferrin; assay: SPR steady state

Row | fold improvement of affinity against the original peptide TRF26 | Binder
7 | > 10 fold | B6

target: transferrin; assay: peptide microarray, rank by score; with organic prewash

Row | Rank -- prewash | Binder
8 | 3320 rank | B7
9 | 61 rank | B8
10 | 603 rank | B9
11 | 9600 rank | B10
12 | 289 rank | B11
13 | 2090 rank | B12
14 | 958 rank | B13
15 | 5 rank | B14
16 | 436 rank | B4

target: Tumor Necrosis Factor-alpha (TNF-α); assay: SPR equilibrium; against the TNF1 lead

Row | Binder | Component Binding ΔG Contribution | Kd Fold-Change Relative to Lead
17 | B15 | -0.72 kcal/mol | 2.8 fold
18 | B16 | – | 6.6 fold
19 | B17 | -0.74 kcal/mol | 3.6 fold
20 | B18 | – | 11 fold
21 | B19 | – | 23 fold
22 | B20 | – | 5.8 fold
23 | B21 | – | 17 fold
24 | B22 | -0.58 kcal/mol | 2.7 fold
25 | B5 | – | 100 fold
26 | B23 | – | 9.4 fold
27 | B24 | -0.82 kcal/mol | 3.9 fold

target: Tumor Necrosis Factor-alpha (TNF-α); assay: SPR kinetic fits of several sensorgrams

Row | Binder | Kd
28 | B5 | 0.7 µM

target: transferrin; assay: against the TRF26 lead

Row | Component Binding ΔG Contribution | Kd Fold-Change Relative to Lead | Binder
29 | -1.29 kcal/mol | 8.8 fold | B1
30 | – | 190 fold | B2
31 | -1.37 kcal/mol | 10 fold | B3

target: transferrin; assay: SPR steady state affinity model, Biacore T100, transferrin immobilised (9758 RU)

Row | Kd | Binder
32 | 150 µM | B25
33 | 11.6 µM | B6
34 | 150 µM | B26

target: transferrin; assay: peptide microarray, rank by score; no organic prewash

Row | Rank - non-prewash | Binder
35 | 1290 rank | B7
36 | 711 rank | B8
37 | 736 rank | B9
38 | 18 rank | B11
39 | 2720 rank | B12
40 | 71 rank | B13
41 | 84 rank | B14
42 | 596 rank | B4

target: transferrin; assay: peptide microarray of about 10,000 peptides, rank by score (555 nm intensity squared over 647 nm intensity); no organic prewash

Row | Rank - non-prewash | Binder
43 | 5010 rank | B10

target: Tumor Necrosis Factor-alpha (TNF-α); assay: SPR equilibrium, Biacore A100, TNF-α captured on chip

Row | Binder | Binding ΔG | Kd | Binding ΔG (observed)
44 | B15 | -5.93 kcal/mol | 57 µM | –
45 | B16 | – | 24 µM | -6.63 kcal/mol
46 | B17 | -5.95 kcal/mol | 44 µM | –
47 | B18 | – | 14 µM | -6.63 kcal/mol
48 | B19 | – | 7 µM | -7.03 kcal/mol
49 | B20 | – | 27 µM | -6.24 kcal/mol
50 | B21 | – | 9.3 µM | -6.67 kcal/mol
51 | B22 | -5.79 kcal/mol | 58 µM | –
52 | B5 | – | 1.6 µM | -7.97 kcal/mol
53 | B23 | – | 17 µM | -6.54 kcal/mol
54 | B24 | -6.03 kcal/mol | 40 µM | –

target: transferrin; assay: SPR kinetics, transferrin immobilised

Row | Kd | Binder
55 | 0.15 µM | B27

target: Tumor Necrosis Factor-alpha (TNF-α); assay: fluorescence anisotropy

Row | Binder | Kd
56 | B5 | 1.1 µM

target: transferrin; assay: SPR steady state, Biacore T100, transferrin immobilised

Row | Kd | Binder
57 | 60 µM | B9
58 | 150 µM | B10
59 | 50 µM | B12
60 | 50 µM | B13
61 | 60 µM | B14
62 | 100 µM | B4

target: Tumor Necrosis Factor-alpha (TNF-α); assay: from SPR dissociation constants

Row | Binder | difference in observed binding energy against the P5Y+S11K mutant | difference in observed binding energy against the D4S+P5Y+S11K mutant | difference in observed binding energy against the P5Y+M7K mutant
63 | B19 | -0.72 kcal/mol | – | –
64 | B5 | -1.66 kcal/mol | -0.94 kcal/mol | -1.73 kcal/mol

target: Tumor Necrosis Factor-alpha (TNF-α); assay: SPR screen at 50 µM peptide, Biacore A100

Row | Binder | fold enhancement in SPR binding response relative to TNF1
65 | B15 | > 15 fold
66 | B17 | > 15 fold
67 | B22 | > 15 fold
68 | B24 | > 15 fold
